Assay: soluble on expression in E. coli; label from the status in PepcDB or PDB records

MGSDKIHHHHHHMLDITMFSKADSVKGQGVGSAYLELMRLLRTHWQDEFNIKVNRYGRSAVSHYHTVNPMFYLSTFMPNRGRKIGYVHFLPETLEGSLKLPRPFQMIFNRYLISFYKRMDHIVVVNPTFIPKLEAYHIKRADVTYIPNFVSKREFYEMTKAKQLRLRQQYGYDQNKFMIIGTGQIQDRKGVPDFITLAKQNPDIQFVWAGGFSFGRITDGYQELKQVVDNPPANLSFPGIVPREKLVDYYNMADLFLLPSYNELFPMSVLEAFSCGTPVLLRDLDLYRAIIDGYYQAASDVDDMQRQIDQLSHNPAGLQFLHDKAVLAAQD
soluble on expression in E. coli: not soluble

MLSRVRIGWLLLEDFFRMNEFEELLNSVSEVSTGDVVTAEVISVDNDQANVVIEGTGIEGVLTRRELTNDRDANVADLVKDGETLEVLVLRQVVGKDTDTVTYLVSKKRLEARKAWDKLVGREEEVVTVKGTRAVKGGLSVEFEGLRGFIPASMIDTRFVRNTEQFVGQEFDAKIKEVDPAENRFILSRREVVEAEAIEARKEVFSKLEVGSVVTGKVARLTSFGAFIDLGGVDGLVHVTELSHERNVSPKSVVSVGDEIEVKVLAIDEEAGRVSLSLKATTPGPWDGVEQKLAAGDVIEGKVKRLTDFGGFVEVLPGIDGLVHISQISHKRVENPKDVLSVGQDVTVKVLEVNADAERVSLSIKALEERPANAEGENNEKRQSRPRRPKRQEKRDYELPETQSGFSMADLFGDIEL
soluble on expression in E. coli: not soluble

MFEELKTFVAVVEYKNFTKAGEYLNLSQPSVSKHIKNLENYFKVVLINRSIKQKTIFITESGQILYKRAKEILNLLNITYHDVSQVSDAITGHLKIGASLTIGEYILPNFLALFSKKYPDIDVEVFIKNTSIVSSHVKDYILDIGLIEGTCSSPSFIQEYFFEDKMVLALPYKSHLLKDFSFDKLQNQKWIVREDGSGTRDYLDMFLSVKEIIPKSMMVFGSNYAVKESVRNNLGITIVSNLVTSLPVLNNELSVIELGSSYNRHFSYIFPKDITLSKAATIFIEELKIFSNLNSI
soluble on expression in E. coli: not soluble

FPVETVQIPVNDEYAVHGWLAHGMSGHGAVLLVHSMRSNRLEMLGRARFLNNQGYHVLMIDLQAHGETPGDRITFGARESADVAAAVGYLRSTFPHDRIAAIGATLGAAAIVLANPPLKLDAMILESLHPTFAEAVANRLKLHLGNTGEYLQFLLLPYFSFLLDLPVNQLNPVDRIGNIAIPVLFIAGTLDRHTTQSEVKRLYDAALPPKELWIVEGAGHYNMHTFAGKSYEMQIADFLSTYL
soluble on expression in E. coli: not soluble

MKIALMMENSQASKNAIIYNELSAVANEKGFPVFNVGMCDENDHHLTYIHLGIMASILLNANAVDFVVTGCGTGQGALMSLNIHPGVICGYCIDPADAFLFAQINNGNALSLPFAKGFGWGAELNVRFIFEKAFTGRKGEGYPPERKAPQVRNAGILNQVKAAVVKENYLDTLRAIDPELVKTAVSGPRFQQCLFENGQNKEIEAFVREMLG
soluble on expression in E. coli: not soluble

MSELRKLELERKKQKLAELKSQRKREEDARVQNLLRSTNENGTTQNGTSRQTLSSNEVEDILRQVGISTEPTVREESPAPPPGSHSDNHVDPSASHPRISNLLSVDLEFSSVQTACTDNKDSAIYSKGTQTDDERISVGEFSLGSQEFDYDDDMIMPMDHGQFRGRAHSHDQDSPLPYNEEIAKLLGQTKQGDKGLTRQETEEKKTQTVQIVPPLSDEEKYRLTLDPEFLDSFNRSCKVISRALNEEIDICINYTKDPYEKAIASDDLLHLAQVYQDETWTAKRLVTGMAFSEHYPDLLAVSYGPCDIPNEPPGVIVVWNTKSKRMTAEFIVYCQSEIQSVAFARFHAHLLLAGCESGQICVWDNRLTSRKLPINRSPLTTQAHTYTVSCLAVVGTKNAHNFVSLSRDGRICSWNVDNLTQPVDGKELMTKEGKAASATRMSFPIGEMQTFVVGTDTGEILAASRNGADPAVIKTDVCYKGHSGTLTGIEFHRASGVVDFSHLFISSSHDWTVKLWSTKDANLKFSFESHPDLVLDVAWSPVHPAVFASIDADGNIFVWNLNEDVEGPVARLRAGAEGESVYMNRLIWSPDGKHVFVGDDEGRVHMYDVRESLYVLKSEEWNRFARVLSDMKQSNEEAENYNM
soluble on expression in E. coli: not soluble

GPGSMASNITAERYEQLKKERTFHKFTYRGLEIDPLLALSEEEFKALVHARARRNMNRHADRRPPVLLKRLREAKKHVKVGEKPKAVKTHLRDVVITPEMVGSVVAIYNGHQFNAVEIKGEMIGHYLGEFSMSYRPVLHGRPGVGATHSSRFIPIK
soluble on expression in E. coli: soluble

MLEVREVEKSFKKKKVLKGGSLSVNKGEIVGLLGPNGAGKTTLFNSIIGFISVDKGKVLLDGEDVTHLPPFKRAQKGLAFLPQEHTLFEDLTVLENLLIFLEFFTDSKEEAITKAEALLEDFGLLELKDQKAYALSGGQKRRLEIARSLITTPKYVLLDEPFAGLDPIIVSEIREIVKNLKNNGIGVLITDHNVRETIKMVDRVYIISEGKVLAHGKPEEVVNNEAVRKTYLGVDFKL
soluble on expression in E. coli: soluble

MSLRWLSLNTATVRKQGDLVAIIDACAKHGIRAIDPWRDQVASVGLDRAARAVRDAGLELSGYCRGGMFTSDASRRGEVRDDNRRCVDEAKALGAPCIVLVVGGLPQYSRPGSEPSKDIAAARGQVEEALADMLDYARQAGLPLAIEPLHPAYAADRACVNTTKQALDICDRLDPGRTGMLGVALDVYHIWWDPELMSQIARAGRDRLLAFHVCDWLVPTRDILNDRGMMGDGVIDIKSVRKAVEAQGFAGYSEIEIFSNDWWAKPMDEVLRTCITRHRTVVEGHHHHHH
soluble on expression in E. coli: not soluble

AIAPRNNKTSLIQKIASQAYATFTNCSSSAIEDNNKVFLEHQADLVALLSDIRAADLKIAPPTKVSTSSPSVPPVTYMHICETDVFSMGVFLLKSGASIPLHDHPGMHGMLKVLYGKVSIRCYDKLDKAESDTERHFDPPLLAFQGDDVRRAALRSSGQFSELSGPCVLSPFKDNLHEIDAVDGAAAFLDILAPPYDPDDGRDCHYYRVLQTAGKKSEQSGDDEAWLLEIPQPDDFWCGGEPYPGPEVTI
soluble on expression in E. coli: soluble

MGSDKIHHHHHHNQFSVKCWLRYIEFKQGAPKPRLNQLYERALKLLPCSYKLWYRYLKARRAQVKHRCVTDPAYEDVNNCHERAFVFMHKMPRLWLDYCQFLMDQGRVTHTRRTFDRALRALPITQHSRIWPLYLRFLRSHPLPETAVRGYRRFLKLSPESAEEYIEYLKSSDRLDEAAQRLATVVNDERFVSKAGKSNYQLWHELCDLISQNPDKVQSLNVDAIIRGGLTRFTDQLGKLWCSLADYYIRSGHFEKARDVYEEAIRTVMTVRDFTQVFDSYAQFEESMIAAKMETASELGREEEDDVDLELRLARFEQLISRRPLLLNSVLLRQNPHHVHEWHKRVALHQGRPREIINTYTEAVQTVDPFKATGKPHTLWVAFAKFYEDNGQLDDARVILEKATKVNFKQVDDLASVWCQCGELELRHENYDEALRLLRKATALPARRAEYFDGSEPVQNRVYKSLKVWSMLADLEESLGTFQSTKAVYDRILDLRIATPQIVINYAMFLEEHKYFEESFKAYERGISLFKWPNVSDIWSTYLTKFIARYGGRKLERARDLFEQALDGCPPKYAKTLYLLYAQLEEEWGLARHAMAVYERATRAVEPAQQYDMFNIYIKRAAEIYGVTHTRGIYQKAIEVLSDEHAREMCLRFADMECKLGEIDRARAIYSFCSQICDPRTTGAFWQTWKDFEVRHGNEDTIKEMLRIRRSVQATYNTQVNFMASQMLKVSGSATGTVSDLAPGQSGMDDMKLLEQRAEQLAAEAERDQPLRAQSKILFVRSDASREELAELAQQVNPEEIQLGEDEDEDEMDLEPNEVRLEQQSVPAAVFGSLKED
soluble on expression in E. coli: not soluble

MSLADIPYGTDYPDAPWIDRDGHVLIDDGGKPTQVHRGQARIAYRLAERYQDKLLHVAGIGWHSWDGRRWAADDRGEAKRAVLAELRQALSDSLNDKELRADVRKCESASGVAGVLDLAAALVPFAATVADLDSDPHLLNVANGTLDLHTLKLRPHAPADRITKICRGAYQSDTESPLWQAFLTRVLPDEGVRGFVQRLAGVGLLGTVREHVLAILIGVGANGKSVFDKAIRYALGDYACTAEPDLFMHRENAHPTGEMDLRGVRWVAVSESEKDRRLAESTIKRLTGGDTIRARKMRQDFVEFTPSHTPLLITNHLPRVPGDDTAIWRRIRVVPFEVVIPADEQDRELDARLQLEADSILSWAVAGWSDYQRIGLSQPDAVLAATSNYREDSDTIKRFIDDECVTSSPVLKATTTHLFEAWQRWRVQEGVPEISRKAFGQSLDTHGYPVTEGHHHHHH
soluble on expression in E. coli: not soluble

MGSDKIHHHHHHLIYDVVIAGGGPVGLFLACELRLAGLPVLVLEQAEDPGSPLKRLPFGLRGLSAPTLEAFYRRGMLNEIAAPQRAKDDSGSSVPNAAHWMQQQRRPGGHFAGIQFYYDNIDTSKWPYRLPGPAGTSMAVEMEHIESVLTARAIALGVEIRRGLSVDGFDQSEEGVTVHAGSEIFRGRWLVGCDGGRSTVRRIGGFDFVGTDPEFTGYSVQVEMADPEKLKPGRHYTPTGMYTYQKPGTIAMVDFDGGAFHRTQPITLDHVQAVLRHISNTDVTVTALQLATTWTDRAYHATTYRKGRVLLAGDAAHIHSPLGGQGLNLGLGDAMNLGWKLAATVRDDAPAGLLDSYTSERHPVGAQVLDWSRAQVAIMRPSRSSRALEAIMRDLIDTRDGATYFAERVWGTALRYDLGSSHTLVGRSAPDFELIDGTRLGELFTKGRGLLLDFDALPSLQALASRWSDRITYVASDVKDRLGVSAVLVRPDGFVAWAGEASPNHDEATQAASQWFGKPEEEGRSPA
soluble on expression in E. coli: not soluble

MIYRFTIISDEVDDFVREIQIDPEATFFDLHEAILKAANYTNDQMTSFFICDDDWEKEKEITLEEMDNNPEMDSWIMKETRLNELIEDEKQKLLYVFDYMTERCFFIELSEIITGKEIKGAKCTKKSGEAPKQTVDFEEMAAGGGSLDLDENFYGDQDFDMEDFDAEGFDVNDGAAGGGSSYDEDKFLEHHHHHH
soluble on expression in E. coli: soluble

SLEPIGRSLQGVTGRPDFQKRLEQMKEKVMKDQDVQAFLKENEEVIDQKMIEKSLNKLYEYIEQSKNCSYCSEDENCNNLLEGYHPKLVVNGRSIDIEYYECPVKRKLDQQKKQQSLMKSMYIQQDLLGATFQQVDISDPSRLAMFQHVTDFLKSYNETGKGKGLYLYGKFGVGKTFMLAAIANELAEKEYSSMIVYVPEFVRELKNSLQDQTLEEKLNMVKTTPVLMLDDIGAESMTSWVRDEVIGTVLQHRMSQQLPTFFSSNFSPDELKHHFTYSQRGEKEEVKAARLMERILYLAAPIRLDGENRRHP
soluble on expression in E. coli: soluble

MKRDRSDYEESMKHIDIVESLMMLSRSFVVKQIDVKQSTGSKTNHNNHFECKTCNRKFDSFQALGGHRASHKKPKLIVDQEQVKHRNKENDMHKCTICDQMFGTGQALGGHMRKHRTSMITEQSIVPSVVYSRPVFNRCSSSKEILDLNLTPLENDLVLIFGKNLVPQIDLKFVN
soluble on expression in E. coli: soluble

PITLVKDILSKPPITAHSNISIMEAAKILIKHNINHLPIVDEHGKLVGIITSWDIAKALAQNKKTIEEIMTRNVITAHEDEPVDHVAIKMSKYNISGVPVVDDYRRVVGIVTSEDISRLFGGKK
soluble on expression in E. coli: soluble

DDVPPRIARAMENEEYWDFDIFELEAATHNRPLIYLGLKMFARFGICEFLHCSESTLRSWLQIIEANYHSSNPYHNSTHSADVLHATAYFLSKERIKETLDPIDEVAALIAATIHDVDHPGRTNSFLCNAGSELAILYNDTAVLESHHAALAFQLTTGDDKCNIFKNMERNDYRTLRQGIIDMVLATEMTKHFEHVNKFVNSINKPLATLEENGETDKNQEVINTMLRTPENRTLIKRMLIKCADVSNPCRPLQYCIEWAARISEEYFSQTDEEKQQGLPVVMPVFDRNTCSIPKSQISFIDYFITDMFDAWDAFVDLPDLMQHLDNNFKYWKGLDEM
soluble on expression in E. coli: soluble

MGSDKIHHHHHHMQTLKRGFAVAALLFSPLTMAQDINAQLTTWFSQRLAGFSDEVVVTLRSSPNLLPSCEQPAFSMTGSAKLWGNVNVVARCANEKRYLQVNVQATGNYVAVAAPIARGGKLTPANVTLKRGRLDQLPPRTVLDIRQIQDAVSLRDLAPGQPVQLTMIRQAWRVKAGQRVQVIANGEGFSVNAEGQAMNNAAVAQNARVRMTSGQIVSGTVDSDGNILINL
soluble on expression in E. coli: not soluble

From the DeepSol protein solubility set
